Results taken from patent US20160251404A1 (Molecular Partners, published 2016).
Residue numbers refer to the chain shown, from its start. Like-named read-outs stand apart in the source and are kept apart here.

B1: DARPin #37 (designed binder)
chain: MRGSHHHHHHGSDLGKKLLEAARAGQDDEVRILMANGADVNATDLTGFTPLHLAAYYGHLEIVEVLLKYGADVNADDRYGLTPLHLAANTGHLEIVEVLLKNGADVNASDSVGTTLLHLAAYIGHPEIVEVLLKYGADVNAQDKFGKTAFDISIDNGNEDLAEILQKLN
B2: DARPin #38 (designed binder)
chain: MRGSHHHHHHGSDLGKKLLEAARAGQDDEVRILMANGADVNATDANGFTPLHLAAFYGHLEIVEVLLKYGADVNAYDNFGLTPLHLAASYGHLEIVEVLLKNGADVYAQDKFGKTAFDISIDNGNEDLAEILQKLN
B3: DARPin #42 (designed binder)
chain: MRGSHHHHHHGSDLGKKLLEAARAGQDDEVRILMANGADVNAKYEDGLTPLHLAAFYGHLEIVEVLLKHGADVNATDAWGHTPLHLAAHYGHLEIVEVLLKYGADVNAIDTLGYTPLHLAANFGHLEIVEVLLKNGADVNAQDKFGKTAFDISIDNGNEDLAEILQKLN
B4: DARPin #41 (designed binder)
chain: B3 chain with K68R, H89Y, Y90L, I109E, L112E, N122M, F123D, V129I, N135H
B5: DARPin #43 (designed binder)
chain: B3 chain with H89Y, A108T, I109H, T111K, L112E, Y114M, P116A, N122L, F123T
B6: DARPin #61 (designed binder)
chain: MRGSHHHHHHGSDLGKKLLEAARAGQDDEVRILMANGADVNAEDYLGHTPLHLAASTGHLEIVEVLLKYGADVNAKDRNGLTPLYLAANNGHLEIVEDLLKYGADVNADDDNGTTPLHLAAIFGHLEIVEVLLKYGADVNAQDKFGKTAFDISIDNGNEDLAEILQKLN
B7: DARPin #58 (designed binder)
chain: MRGSHHHHHHGSDLGKKLLEAARAGQDDEVRILMANGADVNAHDYVGLTPLHLAASIGHLEIVEVLLKYGADVNASDYNGFTPLYLAANNGHLEIVEVLLKNGADVNATDSFGYTPLHLAAHYGHLEIVEVLLKNGADVNAQDKFGKTAFDISIDNGNEDLAEILQKLN
B8: DARPin #33 (designed binder)
chain: MRGSHHHHHHGSDLGKKLLEAARAGQDDEVRILMANGADVNAHDYSGFTPLHLAAYYGHLEIVEVLLKHGADVNAFDDWGHTPLHLAARYGHLEIVEVLLKYGADVNAEDTEGYTPLHLAAMDGHLEIVEVLLKNGADVNAQDKFGKTAFDISIDNGNEDLAEILQKLN
B9: DARPin #59 (designed binder)
chain: MRGSHHHHHHGSDLGKKLLEAARAGQDDEVRILMANGADVNADDSLGLTPLHLAAASGHLEIVEVLLKNGADVNAVDQNSFTPLYLAANNGHLEIVEVLLKNGADVNAFDWHGTTPLHLAAMFGHLEIVEVLLKNGADVNAQDKFGKTAFDISIDNGNEDLAEILQKLN
B10: DARPin #48 (designed binder)
chain: MRGSHHHHHHGSDLGKKLLEAARAGQDDEVRILMANGADVNAKDRFGDTPLHLAADIGHLKIVEVLLKHGADVNAEDWFGNTPLHLAASMGHLEIVEVLLKYGADVNAMDDYGNTPLHLAANTGHLEIVEVLLKHGADVNAQDKFGKTAFDISIDNGNEDLAEILQKLN
B11: DARPin #51 (designed binder)
chain: MRGSHHHHHHGSDLGKKLLEAARAGQDDEVRILLKAGADVNAKDRYGDTPLHLAADIGHLEIVEVLLKAGADVNAEDYFGNTPLHLAASYGHLEIVEVLLKAGADVNAKDDYGNTPLHLAANTGHLEIVEVLLKAGADVNAQDKSGKTPADLAADAGHEDIAEVLQKLN
B12: DARPin #56 (designed binder)
chain: MRGSHHHHHHGSDLGKKLLEAARAGQDDEVRILMANGADVNANDFLGLTPLHLAASTGHLEIVEVLLKYGADVNAIDAYGHTPLHLAANNGHLEIVEVLLKYGADVNAIDHFGYTPLHLAAMFGHLEIVEVLLKNGADVNAQDKFGKTAFDISIDNGNEDLAEILQKLN
B13: DARPin #60 (designed binder)
chain: MRGSHHHHHHGSDLGMKLLEAARAGQDDEVRILMANGADVNAHDTWGLTPLHLAAFHGHQEIVEVLLKHGADVNAQDFYGKTPLHLAALRGHLEIVEVLLKYGADVNAQDQFGKTAFDISIDNGNEDLAEILQKLN
B14: DARPin #57 (designed binder)
chain: MRGSHHHHHHGSDLGKKLLEAARAGQDDEVRILMANGADVNAHDYLGLTPLHLAASDGHLEIVEVLLKHGADVNAYDYNGLTPLHLAANNGHLEIVEVLLKYGADVNAFDVAGYTPLHLAAYFGHLEIVEVLLKYGADVNAQDKFGKTAFDISIDNGNEDLAEILQKLN

Columns and labels:
[1] = molecular target: T1, recombinant human HGF (hepatocyte growth factor) (human, UniProt P14210 32-728); experiment: cell-based or functional assay
T1 sequence (P14210 32-728 limits assumed): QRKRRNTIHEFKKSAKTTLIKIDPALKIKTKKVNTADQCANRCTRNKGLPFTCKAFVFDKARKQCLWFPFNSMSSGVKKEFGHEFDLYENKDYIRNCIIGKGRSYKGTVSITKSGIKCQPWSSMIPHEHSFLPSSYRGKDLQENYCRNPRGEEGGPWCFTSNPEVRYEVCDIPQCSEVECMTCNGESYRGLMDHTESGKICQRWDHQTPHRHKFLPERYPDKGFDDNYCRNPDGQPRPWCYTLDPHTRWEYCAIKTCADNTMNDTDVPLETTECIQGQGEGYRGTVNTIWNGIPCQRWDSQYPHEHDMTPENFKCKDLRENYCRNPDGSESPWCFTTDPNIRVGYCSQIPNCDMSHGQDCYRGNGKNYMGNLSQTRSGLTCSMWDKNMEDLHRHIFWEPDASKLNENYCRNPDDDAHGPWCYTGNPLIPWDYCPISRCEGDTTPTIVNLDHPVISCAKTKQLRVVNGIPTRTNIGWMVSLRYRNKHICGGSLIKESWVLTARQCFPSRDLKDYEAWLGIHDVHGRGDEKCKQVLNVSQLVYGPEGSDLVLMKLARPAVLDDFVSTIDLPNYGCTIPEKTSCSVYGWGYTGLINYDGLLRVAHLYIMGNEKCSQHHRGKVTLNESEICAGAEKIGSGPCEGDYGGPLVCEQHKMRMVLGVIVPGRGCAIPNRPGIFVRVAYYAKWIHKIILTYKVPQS

[2] = molecular target: T1, recombinant human HGF (hepatocyte …); experiment: cell-based or functional assay; remark: listed apart in the source
[3] = molecular target: T1, recombinant human HGF (hepatocyte …); experiment: SPR (ProteOn), human HGF immobilized on GLC chip, DARPin injected, PBS 0.005% Tween 20
Method: SPR was measured using a ProteOn instrument (BioRad) and measurement was performed according standard procedures known to the person skilled in the art. The running buffer was PBS, pH 7.4, containing 0.005% Tween 20®. Human HGF was covalently immobilized on a GLC chip (BioRad) to a level of about 5000 resonance units (RU). The interaction of DARPin and HGF was then measured by injecting 200 μl running buffer (PBS containing 0.005% Tween®) containing serial dilutions of DARPins of concentration of […] (on-rate measurement), followed by a running buffer flow for 25 minutes at a constant flow rate of 100 μl/min (off-rate measurement). The signals (i.e. resonance unit (RU) values) of the interspots and a reference injection (i.e. injection of running buffer only) were subtracted from the RU traces obtained after injection of DARPin (double-referencing). From the SPR traces obtained from the on-rate and off-rate measurements the on- and off-rate of the corresponding DARPin HGF interaction can be determined. […] Dissociation constants (Kd) were calculated from the estimated on- and off-rates using standard procedures known to the person skilled in the art. […] As an example, Table 1 summarizes the Kd values for some of the selected DARPins.

[4] = molecular target: T1, recombinant human HGF (hepatocyte …); experiment: receptor competition ELISA: DARPin premixed with human HGF, binding of HGF to coated c-Met Fc chimera detected with anti-HGF antibody
Method: The potency of anti-HGF DARPins to inhibit the binding of human HGF to its receptor c-Met was determined in a receptor competition ELISA. c-Met (Fc chimera; RnD systems, USA, 358-MT-100/CF) was pre-coated on a microplate. DARPins and HGF were premixed in PBSTC and incubated at room temperature for 0.5 hours. These preincubation mixtures were then transferred into the with c-Met precoated wells and any HGF that was not blocked by the DARPins was bound by the immobilized receptor. After washing away any unbound substances, an polyclonal antibody specific for HGF (RnD systems, USA, AF-294-NA) was added to the wells. After washing away any unbound substances, an horse radish peroxidase conjugated antibody (Novus Biologicals, USA, NB7357) binding to the polyclonal antibody specific for HGF was added to the wells. Following a wash to remove any unbound antibody-enzyme reagent, a substrate solution (Roche, Switzerland, 11484281001) was added to the wells and color was developing in proportion to the amount of HGF bound. The color development was stopped and the intensity of the color was measured at 405 nm. […] Example titration curves are given for a set of DARPins in FIG. 5. IC₅₀ values were calculated from such titration curves obtained as described above using standard procedures known to the person skilled in the art.

[5] = molecular target: T1, recombinant human HGF (hepatocyte …); experiment: cell-based or functional assay; remark: listed apart in the source

Row | Binder | % inhibition of HGF stimulated c-Met phosphorylation in A549 cells [1] [%] | IC50 of HGF stimulated c-Met phosphorylation in A549 cells [1] [nM] | IC50 of U87 cell proliferation (BrdU) [2] [nM] | Kd [3] [nM] | IC50 [4] [nM] | IC50 of U87 cell proliferation (BrdU) [5] [nM]
1 | B1 | 95 | 0.07 | 400 | 0.011 | 1.33 | 
2 | B2 | 88 | 2.59 |  | 1.6 |  | 
3 | B3 | 98 | 0.32 | 82 | 0.084 |  | 
4 | B4 | 99 | 0.13 | 113 |  |  | 
5 | B5 | 101 | 0.16 | 71 | 0.025 | 1.36 | 72
6 | B6 | 82 | 0.39 |  | 0.16 |  | 
7 | B7 | 89 | 1.63 |  | 0.578 |  | 
8 | B8 | 100 | 0.2 | 137 | 0.148 |  | 
9 | B9 | 100 | 0.85 | 3280 | 0.528 |  | 
10 | B10 | 95 | 0.1 |  | 0.016 | 0.91 | 
11 | B11 | 81 | 0.01 | 116 | 0.051 | 0.62 | 
12 | B12 | 72 | 0.53 |  | 0.736 |  | 
13 | B13 | 94 | 0.05 | 78 | 0.026 | 0.95 | 
14 | B14 | 100 | 1.72 | 730 | 16.6 | 1.71 | 
